From a protein production outcome set (Wang et al. 2014) come the findings set out here.

A short description of this data set: label from the status in PepcDB records.

On to “MNMKKIFKRTSLLLATALIGVTATVQAQKSPQDMDRFIDALMRRMTVEEKIGQLNLPVTGEITTGQAKSSDVAKKIEQGLVGGLFNLKGVAKIRDVQKLAVENSRLGIPLLFGMDVIHGYETIFPIPLGLSCTWDMAAIEQSARIAATEASADGISWTFSPMVDISRDPRWGRVSEGSGEDPFLGGAIARAMVLGYQGKDPDDQLKRNDEIMACVKHFALYGAGEAGRDYNTVDMSRNRMFNEYMYPYEAAVRAGVGSAMASFNEVDGVPATANHWLMTDVLRKQWGFNGFVVTDFTGISEMVEHGIGNLQTVSTRALNAGVDMDMVSEGFVGTLKKSLTEGKITMKTLDAACRRILEAKYKLGLFDDPYKYCDLSRPARDIFTREHRAAARRIAAESFVLLKNEPFEGQGKKSSRPVLPLEKQGTVAVIGPLGNTRSNMPGTWSVAARLDDYPSLYEGLKEMTASRVNITYAKGSNLISDAAYEERATLFGRSLNRDNRTDKKLLDEALKVASGADVIVAALGESSEMSGESSSRTDLGIPDVQRTLLEALLKTGKPVVLTLFTGRPLTLTWEQEHVPAILNVWFGGSEAAYAIGDVLFGDVNPSGKLTMTFPKNVGQIPLFYNHKNTGRPLAEGKWFEKFRSNYLDVDNEPLYPFGYGLSYTTFRYSDIALSTPVMGQNGSTTAVVTVTNTGKRDGAEVVQLYIRDLVGSITRPVRELKGFEKVFLKAGESKTVSFKITPELLRFYDYDLNHVAEPGDFDVMIGGSSQAEKTARLTLK”, for which the protein production result was “failed”.
In the case of “MNMYRVLLIILGWISVVLATLGVVLPLLPTTPFLLLAAWCFARSSPRFHNWLLHRSWFGSYLRHWQQHRALPPGAKWKAVTMILLTFALSLWLVKLVWVRILLLVILTILLTFMLRLPVVDPEQQTQGADPKR”, the protein production entry is given as “failed”.
For “MNNIAAIVVTYNRKKLLKKCIKGLKEQTEKADIIIIDNMSTDGTLEMLQPLINSNEIIYHSTGKNIGGAGGFYEGIKLAYEMGYKYFWLMDDDCIPTSSALEKLMNVVNEKKNFGFLVSKALWKDGEVCKMNIPKIKLTKQVNDFSKKVIQIKMGTFVSFLTSREVVEKVGLPIKEFFIWGDDLEYSQRISQKFPSYLVTNSLVYHETKLNEGSNIALDSVDRLKRYKLAYRNEVVLFKEMGLQGQMYQYFRLVLHCGRILFKSKDHKKERLNIIFQGTRAGYNFHPVIKNIK” the value was “failed”.
As for “MNNIIVGMGEALWDVLPEGKKIGGAPANFAYHVSQFGFDSRVVSAVGNDELGDEIMEVFKEKQLKNQIERVDYPTGTVQVTLDDEGVPCYEIKEGVAWDNIPFTDELKRLALNTRAVCFGSLAQRNEVSRATINRFLDTMPDIDGQLKIFDINLRQDFYTKEVLRESFKRCNILKINDEELVTISRMFGYPGIDLQDKCWILLAKYNLKMLILTCGINGSYVFTPGVVSFQETPKVPVADTVGAGDSFTAAFCASILNGKSVPEAHKLAVEVSAYVCTQSGAMPELPVILKDRLL”, the protein production result is “not failed”.
Turning to “MNNKITKTSIFLTISLLLITPGFSVVAVGLLTLYSSVKLIKNGLNLNKFDIIPLITLSAYFLSNLPITIIDGDTLRYLDAGIRALLCIPMYFFIKNEISKGANLDNTLCTSTILASFGALAFAFYQFFILNMPRVDGFLFSINFGYLAAALAILSFGLSFTQTRFKYYLYLSVVAATVATILTLTRGAILTLLFVFILFFIVNVRKIKFKQTLVFTLISFLLVSVSYQFSPRIQERVDFTIFEISSIASNNIHAAASSGGRLQLWYAAVEAFKHNPIWGTTYSERESLNIELFKEGKVDEWTSTVPRGHAHSQYFEAIASNGTLGILAIFAMLILPFGVFLNDYRKTGSPISQTGYLFAFGFIIFCLTEAPLQANLIGTFYGFMVAIFYAYIAAKRAKN”, the protein production entry was “failed”.
To “MNNLFVLLIIIALSVGSNNGSKLWPKNQLHFRNSFSRNYDVLTVHCKSKDDDLGIHTVARSYEYNFKFEDSVFGRTEFFCTLMHGVGSKYSVTFTAYKAKPAFVASTGVIKIWDALDDGIYLTDEDHDFVKIYGW” belongs “failed”.
To “MNNLSWSDIKRSTFNAIKKGDLKLLANMIDKYPKVIDAYNSSGYSLLHVAAEQDNVEVLEYLYNNKIDVNITRKNDDGCVTPIHGAVDKNLIGNVEWLIAHGAKIDTGNGIHATPLIGAAFNGNLEMVKLLLKNGADINAFYDIGEGINKTRITPLIAAEMEGHTETCEYLCKNGARKLDAKKYELTQIKNQHDEILQYLQRYFGNVNKTLSEVIPASNVSVNLNIMRNTENDKFITIVTTGMSDCPMDDSDEAFEERFAELIIKLPKDWLIDKNNIKDVNNYWPLGWIRRIAHIPHLYDGWIGKDIIIPNGEPPQPFAPNTKLSCIMICQPDEKELHRFTTSKGNIINLYTLIPIYKEERNMALIKGCKYLRKRMEDRGIDEILNITRENVGLSADEQ” belongs “failed”; to “MNNQFSQRVSDIIVYSKEEANRLRSRHIGPEHLLLGMLRDGEGKAIEILSKLNTNLAAVKQQIEARLKTEADDMLLPDAEIPLSNDAAKILKMCILEARGMKSNIADTEHVLLAILRERNNMAASVLEANDVNYVKVLEQATLQPD”, “failed”.
For the sequence “MNNRFNGTSIKQYSTTFLLLGSMASAAHVRAADEFHPNSFNSEALKQSMIAEFALAYDDVPTAIHNYTVLAIKSNSTSIKQRALDIALEYNDLKAALDIATHWVVQEPEDVPAMFYLAHIALRAHEYKLAANTLDKILNIDPNADLEQILAGIAPESKEDRENLLETLKTSKEKENPSILVMIAGLEAQNGHLQDALINTNRALRKRPKVTGFILMKANLLIGLNDIEGAQKWYAKSSKRHRDNLDIRLAEARFLIRHNESELALKKLEDIIKTWPDAEDAKFIAGLTSIDLKQYEKAEQYLVDLRYSAKYQNDAYYYLAVNAERKQHFETAKAYYRLVDGSLYVVSRRNLVSIFEKQGNLNDALRFLTQERVNYPQHASFLYQAQAEILKKTGNKKAALRLLDEAIKNISDDPELIYAEVLLLDPFSDRDKLDRTLKQLLLIEPNSPTYLNAYAYTLALQNRRLDEARQYAELALEYAPEQASILDTLGYIAFLQNDYAAAATSLGKAYTLSNNVNIGIRFAKALYMQGNLTEFSEVLQQLKEKNANDPQLKQLDALILPTVTKKS”, the protein production result is recorded as “failed”.
For “MNNRKKNIQYLVYSKVIYRIGDVMFDFANNTFLAGLNPASLSLVAVYQSLESVIGVLFNLFGGVIADSFKRKKIIITTNILCGTACLVLSFLTKEQWLVYAIVLTNVILAFMSAFSSPSYKAFTKEIVKKDSISQLNSLLETTSTVIKVTVPMVAIFLYKLLGIHGVLLLDGLSFLIAALLISFILPVNDEVVIKEKVTIREIFNDLKIGFKYVYSHKSIFIITVLSALVNFFLAAYNLLLPYSNQMFGEISTGLYGTFLTAEAIGGFIGAILSGFVNKELSSMRLILFLSLSGLMLMLAPPFYIMFHNAIILALSPALFSLFLSIFNIQFFSLVQKDVDNDFLGRVFGIIFTITILFMPIGTGFFSVALNPNNSFNLFIIGSCITTLSLVFRILFKKYNIR” the value was “failed”.
On to “MNNYVKVHQPLNVDLRTQKTQTKLYTVLERFYVEDRTFESISIKDLCEQARVSRATFYRHHKEIIQVIEVQILRTMQYFSLEFDQIILTKENIQRLILRTIQKNPLLFQVIFWSRAENIFIDVVSGEILRISLLKEVSFSDSKFMPNCFARMILSLAAEIQQSNKDYTNDQLVELIQEAARFLQK”, for which the protein production result is given as “not failed”.
For “MNPAITPILLGLVAGITVTFGALTYIVVGRRLGRRGQGVLNALAGGVLAYLALETGHESAAYVEQFATRETLDSFLAGLMVTSIALLGTWLLLSYVERGYSTLVRAPPGLMVSLTVASALGLHNLGEGLAIAASLIEGKVSLAILFAVGFAIHNYTEGFPIAAPLAGEKKRTGLRTIIGLSLLAGLPVVPGAMVYYLGSNLPGLAIATLYTVAAASIVYAMLHINLSALSRLGGLSSPSFWSSLFLGIALAYVTESIILIAGLH” the value was “failed”; for “MNPAPERTVMQHVRPLPYEADFTGFLSNTVAPRWMEALRIQRMRTCFPHFDSGAPQHLCIITETTVRYRKPVRYSDAIVGKAWLQSARYSRWIIAFSFAFEFSGLPAFEGRQAGTFIDPLEHHHHHH”, “failed”; for “MNPENWLLLRRVVRFGDTDAAGVMHFHQLFRWCHESWEESLESYGLNPADIFPGSRKSEVTPEVALPIIHCQADFRRPIHTGDALAMELRPERLNPNSFQVHFEFRCEEQIAAHALIRHLAINAQTRHRCALPEGIDRWLEASGVGKIGSI”, “not failed”.
